Biological target: T1, FSTL3-FC (biotin) (UniProt O95633, biotin)
T1 construct: FSTL3 gene fused with a human Fc fragment in pCDNA3.4; also called biotinylated FSTL3-FC; source: 293F cells, transfected, purified (Protein A), biotinylated, ultrafiltration; made by SGE BIOTECH
Test: ELISA; sandwich ELISA with biotinylated FSTL3-FC, aFSTL3 and Activin A-mFC; in vitro
Settings: both partners purified

T1 sequence (O95633 27-263): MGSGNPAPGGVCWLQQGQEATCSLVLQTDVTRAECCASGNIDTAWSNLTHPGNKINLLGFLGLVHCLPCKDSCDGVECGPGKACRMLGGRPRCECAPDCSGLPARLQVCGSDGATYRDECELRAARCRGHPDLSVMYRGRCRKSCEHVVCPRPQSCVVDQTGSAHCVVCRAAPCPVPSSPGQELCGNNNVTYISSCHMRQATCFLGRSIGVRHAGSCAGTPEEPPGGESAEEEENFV

- binding result: binds
B1: FSTL3-targeting antibodies (aFSTL3) (antibody, V domains shown)
VH: EVQLQQSAAELARPGASVKMSCKASGYSFTTYTMHWVKQRPGQGLEWIGYIHPSSGYTDHIQKFKDKTILTADKSSSTAYMQLNSLTSEDSAVYYCARLDYGYWGQGTTLTVSS
VL: DILMTQTPLSLPVSLGDQASISCRSSQSIVHSNGNTYLEWYLQKPGQSPKLLIYKVSNRFSGVPDRFTGSGSGTDFTLKISRVEAADLGVYYCFQSSHIPPTFGGGTKLEIK
notes: cloned into the PTT5-human IgG1 CH vector; cloned into the PTT5-human kappa CL vector; Human IgG1 CH, human kappa CL; source: 293F cells, transfected, purified (Protein A); made by SGE BIOTECH

— PMC12501291, “Cancer-associated fibroblasts expressing FSTL3 promote vasculogenic mimicry formation and drive colon cancer malignancy” (Cell Death & Disease, 2025)
